Reference: publication doi:10.1101/2025.02.24.639830

System: LeuO (Escherichia coli (ASKA library overexpression strain))
Assay: EMSA

Substance: leuLABCD promoter region EMSA probe
- K half: 25 nM
